Experimental findings from article PMC4161475 are described below.

In the assay the target is G-actin (rabbit skeletal muscle actin, monomeric) (rabbit) (UniProt P68135). The experiment in a line: ELISA; solid-phase assay: wells coated with 5 µM G-actin in PBS, 5 µM protein added, detected with anti-EhCoactosin antibody; in the presence of Ca2+ (2 mM) or EGTA (5 mM). In general terms: ELISA stands for enzyme-linked immunosorbent assay.

Take “EhCoactosin with the C-terminal 14 residues deleted (domain or fragment)”: the percent decrease in binding against WT was determined as 33%.
